One assay has as its target dog plasma proteins. As to the kind of experiment: plasma protein binding, ultracentrifugation of spiked plasma, LC-MS/MS.
Assay [1] has as its target human plasma proteins. The assay is described as above.
For assay [2], the target named is human plasma proteins. As to the kind of experiment: plasma protein binding; spiked human plasma, ultracentrifugation, LC-MS/MS.

Starred links: 1 amine or outer side, 2 acyl side, 3 side chain; linkers in the order of their positions; H or OH if unused. Non-standard residues stand in square brackets, D forms with d. Groups on a side chain read outwards from the residue. No end group written: not given here. *: point of attachment. C16 diacid = O=C(O)CCCCCCCCCCCCCCC(=O)*; C15 diacid = O=C(O)CCCCCCCCCCCCCC(=O)*; γGlu = O=C(O)[C@H](CCC(=O)[*:2])N[*:1]; NMeY = CN[C@@H](Cc1ccc(O)cc1)C(=O)O; AEEA = NCCOCCOCC(=O)O; Aib = CC(C)(N)C(=O)O

B1: Compound 16 (peptide)
peptide: [NMeY][Aib]EGTFISDYSIAK([AEEA-AEEA-γGlu-γGlu-C15 diacid])DR[Aib]AQ[Aib]NFVNWLLAQS
Turning to B1, the Dog PPB (Fu,plasma), fraction unbound (fraction unbound) in the assay with dog plasma proteins turned out to be 0.0151. The Human PPB (Fu,plasma), fraction unbound (fraction unbound) in the assay with human plasma proteins [1] worked out at 0.0441.

B2: Compound 23 (peptide)
peptide: [NMeY][Aib]EGTFISDYSIAK([AEEA-γGlu-γGlu-γGlu-C15 diacid])DR[Aib]AQ[Aib]NFVNWLLAQK-NH2
modifications: N-terminus assumed
SMILES: CC[C@H](C)[C@H](NC(=O)[C@H](CO)NC(=O)[C@H](Cc1ccc(O)cc1)NC(=O)[C@H](CC(=O)O)NC(=O)[C@H](CO)NC(=O)[C@@H](NC(=O)[C@H](Cc1ccccc1)NC(=O)[C@@H](NC(=O)CNC(=O)[C@H](CCC(=O)O)NC(=O)C(C)(C)NC(=O)[C@H](Cc1ccc(O)cc1)NC)[C@@H](C)O)[C@@H](C)CC)C(=O)N[C@@H](C)C(=O)N[C@@H](CCCCNC(=O)COCCOCCNC(=O)CC[C@H](NC(=O)CC[C@H](NC(=O)CC[C@H](NC(=O)CCCCCCCCCCCCCC(=O)O)C(=O)O)C(=O)O)C(=O)O)C(=O)N[C@@H](CC(=O)O)C(=O)N[C@@H](CCCNC(=N)N)C(=O)NC(C)(C)C(=O)N[C@@H](C)C(=O)N[C@@H](CCC(N)=O)C(=O)NC(C)(C)C(=O)N[C@@H](CC(N)=O)C(=O)N[C@@H](Cc1ccccc1)C(=O)N[C@H](C(=O)N[C@@H](CC(N)=O)C(=O)N[C@@H](Cc1c[nH]c2ccccc12)C(=O)N[C@@H](CC(C)C)C(=O)N[C@@H](CC(C)C)C(=O)N[C@@H](C)C(=O)N[C@@H](CCC(N)=O)C(=O)N[C@@H](CCCCN)C(N)=O)C(C)C
With B2, in the assay with human plasma proteins [2], the percent of unbound drug in plasma came out at 7.3% and the proportion of the drug being bound came to 92.7%. Further, the Human PPB (Fu,plasma), fraction unbound (fraction unbound) in the assay with human plasma proteins [1] is 0.0734.

B3: Compound 18 (peptide)
peptide: [NMeY][Aib]EGTFISDYSIAK([γGlu-γGlu-γGlu-C15 diacid])DR[Aib]AQ[Aib]NFVNWLLAQSPSSGAPPPS-NH2
modifications: N-terminus assumed
SMILES: CC[C@H](C)[C@H](NC(=O)[C@H](CO)NC(=O)[C@H](Cc1ccc(O)cc1)NC(=O)[C@H](CC(=O)O)NC(=O)[C@H](CO)NC(=O)[C@@H](NC(=O)[C@H](Cc1ccccc1)NC(=O)[C@@H](NC(=O)CNC(=O)[C@H](CCC(=O)O)NC(=O)C(C)(C)NC(=O)[C@H](Cc1ccc(O)cc1)NC)[C@@H](C)O)[C@@H](C)CC)C(=O)N[C@@H](C)C(=O)N[C@@H](CCCCNC(=O)CC[C@H](NC(=O)CC[C@H](NC(=O)CC[C@H](NC(=O)CCCCCCCCCCCCCC(=O)O)C(=O)O)C(=O)O)C(=O)O)C(=O)N[C@@H](CC(=O)O)C(=O)N[C@@H](CCCNC(=N)N)C(=O)NC(C)(C)C(=O)N[C@@H](C)C(=O)N[C@@H](CCC(N)=O)C(=O)NC(C)(C)C(=O)N[C@@H](CC(N)=O)C(=O)N[C@@H](Cc1ccccc1)C(=O)N[C@H](C(=O)N[C@@H](CC(N)=O)C(=O)N[C@@H](Cc1c[nH]c2ccccc12)C(=O)N[C@@H](CC(C)C)C(=O)N[C@@H](CC(C)C)C(=O)N[C@@H](C)C(=O)N[C@@H](CCC(N)=O)C(=O)N[C@@H](CO)C(=O)N1CCC[C@H]1C(=O)N[C@@H](CO)C(=O)N[C@@H](CO)C(=O)NCC(=O)N[C@@H](C)C(=O)N1CCC[C@H]1C(=O)N1CCC[C@H]1C(=O)N1CCC[C@H]1C(=O)N[C@@H](CO)C(N)=O)C(C)C
The molecule B3 registered a Dog PPB (Fu,plasma), fraction unbound (fraction unbound) with dog plasma proteins of 0.0517. In the assay with human plasma proteins [1], this molecule came in with a Human PPB (Fu,plasma), fraction unbound (fraction unbound) of 0.0588.

B4: Compound 20 (peptide)
peptide: [NMeY][Aib]EGTFISDYSI[Aib]LDRK([AEEA-AEEA-γGlu-γGlu-C15 diacid])AQ[Aib]NFVNWLLAQRPSSGAPPPS-NH2
modifications: not fully specified (N-terminus)
Regarding B4, the percent of unbound drug in plasma with human plasma proteins [2] came to 0.1%. Besides, the Dog PPB (Fu,plasma), fraction unbound (fraction unbound) with dog plasma proteins was determined as 0.0021. The molecule also showed a Human PPB (Fu,plasma), fraction unbound (fraction unbound) with human plasma proteins [1] of 0.0013.

B5: Compound 17 (peptide)
peptide: [NMeY][Aib]EGTFISDYSIALDR[Aib]K([AEEA-AEEA-γGlu-γGlu-C15 diacid])Q[Aib]NFVNWLLAQSPSSGAPPPS-NH2
modifications: N-terminus assumed
SMILES: CC[C@H](C)[C@H](NC(=O)[C@H](CO)NC(=O)[C@H](Cc1ccc(O)cc1)NC(=O)[C@H](CC(=O)O)NC(=O)[C@H](CO)NC(=O)[C@@H](NC(=O)[C@H](Cc1ccccc1)NC(=O)[C@@H](NC(=O)CNC(=O)[C@H](CCC(=O)O)NC(=O)C(C)(C)NC(=O)[C@H](Cc1ccc(O)cc1)NC)[C@@H](C)O)[C@@H](C)CC)C(=O)N[C@@H](C)C(=O)N[C@@H](CC(C)C)C(=O)N[C@@H](CC(=O)O)C(=O)N[C@@H](CCCNC(=N)N)C(=O)NC(C)(C)C(=O)N[C@@H](CCCCNC(=O)COCCOCCNC(=O)COCCOCCNC(=O)CC[C@H](NC(=O)CC[C@H](NC(=O)CCCCCCCCCCCCCC(=O)O)C(=O)O)C(=O)O)C(=O)N[C@@H](CCC(N)=O)C(=O)NC(C)(C)C(=O)N[C@@H](CC(N)=O)C(=O)N[C@@H](Cc1ccccc1)C(=O)N[C@H](C(=O)N[C@@H](CC(N)=O)C(=O)N[C@@H](Cc1c[nH]c2ccccc12)C(=O)N[C@@H](CC(C)C)C(=O)N[C@@H](CC(C)C)C(=O)N[C@@H](C)C(=O)N[C@@H](CCC(N)=O)C(=O)N[C@@H](CO)C(=O)N1CCC[C@H]1C(=O)N[C@@H](CO)C(=O)N[C@@H](CO)C(=O)NCC(=O)N[C@@H](C)C(=O)N1CCC[C@H]1C(=O)N1CCC[C@H]1C(=O)N1CCC[C@H]1C(=O)N[C@@H](CO)C(N)=O)C(C)C
In turn, B5 registered a Dog PPB (Fu,plasma), fraction unbound (fraction unbound) with dog plasma proteins of 0.0675. The Human PPB (Fu,plasma), fraction unbound (fraction unbound) with human plasma proteins [1] is 0.064.

B6: Compound 21 (peptide)
peptide: [NMeY][Aib]EGTFISDYSI[Aib]LDR[Aib]AQ[Aib]NFVNWLLAQK([AEEA-AEEA-γGlu-γGlu-C15 diacid])PSSGAPPPS-NH2
modifications: N-terminus assumed
SMILES: CC[C@H](C)[C@H](NC(=O)[C@H](Cc1ccccc1)NC(=O)[C@@H](NC(=O)CNC(=O)[C@H](CCC(=O)O)NC(=O)C(C)(C)NC(=O)[C@H](Cc1ccc(O)cc1)NC)[C@@H](C)O)C(=O)N[C@@H](CO)C(=O)N[C@@H](CC(=O)O)C(=O)N[C@@H](Cc1ccc(O)cc1)C(=O)N[C@@H](CO)C(=O)N[C@H](C(=O)NC(C)(C)C(=O)N[C@@H](CC(C)C)C(=O)N[C@@H](CC(=O)O)C(=O)N[C@@H](CCCNC(=N)N)C(=O)NC(C)(C)C(=O)N[C@@H](C)C(=O)N[C@@H](CCC(N)=O)C(=O)NC(C)(C)C(=O)N[C@@H](CC(N)=O)C(=O)N[C@@H](Cc1ccccc1)C(=O)N[C@H](C(=O)N[C@@H](CC(N)=O)C(=O)N[C@@H](Cc1c[nH]c2ccccc12)C(=O)N[C@@H](CC(C)C)C(=O)N[C@@H](CC(C)C)C(=O)N[C@@H](C)C(=O)N[C@@H](CCC(N)=O)C(=O)N[C@@H](CCCCNC(=O)COCCOCCNC(=O)COCCOCCNC(=O)CC[C@H](NC(=O)CC[C@H](NC(=O)CCCCCCCCCCCCCC(=O)O)C(=O)O)C(=O)O)C(=O)N1CCC[C@H]1C(=O)N[C@@H](CO)C(=O)N[C@@H](CO)C(=O)NCC(=O)N[C@@H](C)C(=O)N1CCC[C@H]1C(=O)N1CCC[C@H]1C(=O)N1CCC[C@H]1C(=O)N[C@@H](CO)C(N)=O)C(C)C)[C@@H](C)CC
In turn, B6 registered a Dog PPB (Fu,plasma), fraction unbound (fraction unbound) with dog plasma proteins of 0.037. Also, the Human PPB (Fu,plasma), fraction unbound (fraction unbound) with human plasma proteins [1] was 0.0414.

B7: Compound 119 (peptide)
peptide: [NMeY][Aib]EGTFISDYSIALDR[Aib]K([AEEA-AEEA-γGlu-γGlu-C16 diacid])Q[Aib]NFVNWLLAQSPSSGAPPPS-NH2
As for B7, the Dog PPB (Fu,plasma), fraction unbound (fraction unbound) in the assay with dog plasma proteins worked out at 0.0105. For the same molecule, the Human PPB (Fu,plasma), fraction unbound (fraction unbound) with human plasma proteins [1] is 0.0185.

B8: Compound 19 (peptide)
peptide: [NMeY][Aib]EGTFISDYSI[Aib]K([AEEA-AEEA-γGlu-γGlu-C15 diacid])DR[Aib]AQ[Aib]NFVNWLLAQRPSSGAPPPS-NH2
modifications: N-terminus assumed
SMILES: CC[C@H](C)[C@H](NC(=O)[C@H](Cc1ccccc1)NC(=O)[C@@H](NC(=O)CNC(=O)[C@H](CCC(=O)O)NC(=O)C(C)(C)NC(=O)[C@H](Cc1ccc(O)cc1)NC)[C@@H](C)O)C(=O)N[C@@H](CO)C(=O)N[C@@H](CC(=O)O)C(=O)N[C@@H](Cc1ccc(O)cc1)C(=O)N[C@@H](CO)C(=O)N[C@H](C(=O)NC(C)(C)C(=O)N[C@@H](CCCCNC(=O)COCCOCCNC(=O)COCCOCCNC(=O)CC[C@H](NC(=O)CC[C@H](NC(=O)CCCCCCCCCCCCCC(=O)O)C(=O)O)C(=O)O)C(=O)N[C@@H](CC(=O)O)C(=O)N[C@@H](CCCNC(=N)N)C(=O)NC(C)(C)C(=O)N[C@@H](C)C(=O)N[C@@H](CCC(N)=O)C(=O)NC(C)(C)C(=O)N[C@@H](CC(N)=O)C(=O)N[C@@H](Cc1ccccc1)C(=O)N[C@H](C(=O)N[C@@H](CC(N)=O)C(=O)N[C@@H](Cc1c[nH]c2ccccc12)C(=O)N[C@@H](CC(C)C)C(=O)N[C@@H](CC(C)C)C(=O)N[C@@H](C)C(=O)N[C@@H](CCC(N)=O)C(=O)N[C@@H](CCCNC(=N)N)C(=O)N1CCC[C@H]1C(=O)N[C@@H](CO)C(=O)N[C@@H](CO)C(=O)NCC(=O)N[C@@H](C)C(=O)N1CCC[C@H]1C(=O)N1CCC[C@H]1C(=O)N1CCC[C@H]1C(=O)N[C@@H](CO)C(N)=O)C(C)C)[C@@H](C)CC
Turning to B8, the Dog PPB (Fu,plasma), fraction unbound (fraction unbound) in the assay with dog plasma proteins stood at 0.0361. This molecule registered a Human PPB (Fu,plasma), fraction unbound (fraction unbound) with human plasma proteins [1] of 0.0321.

(Values after patent US20220227830A1, “QD DOSING OF GIP RECEPTOR AGONIST PEPTIDE COMPOUNDS AND USES THEREOF” (Takeda Pharmaceutical Company Limited, priority 2020, published 2022).)
